From the DeepSol protein solubility set

Assay: soluble on expression in E. coli; label from the status in PepcDB or PDB records

Sequence	soluble on expression in E. coli
MGSDKIHHHHHHMDTQQLKVVSQQVQEQANFPPEFNRLLNELPDEVKHRIFPHLELVQLELGDVVCEAGSKVRYVYFPLNSIISLLYVMENGASAEIAVVGNDGMVGVALFMGGESTTSRAIVQSAGVAYRLFGQRLKDEFNRHGALLHLLLRYSQILLTQMAQTAVCNRHHSIEQQLCRWLLLSIDRLPDDRVMMTQELIANMLGVRREGVTDAAGKLQRIGIINYSRGNIEVLDRKLLEQTCCECYSVVKQESERLMPLKKFTKK	not soluble
MHTAEFLETEPTEISSVLAGGYNHPLLRQWQSERQLTKNMLIFPLFISDNPDDFTEIDSLPNINRIGVNRLKDYLKPLVAKGLRSVILFGVPLIPGTKDPVGTAADDPAGPVIQGIKFIREYFPELYIICDVCLCEYTSHGHCGVLYDDGTINRERSVSRLAAVAVNYAKAGAHCVAPSDMIDGRIRDIKRGLINANLAHKTFVLSYAAKFSGNLYGPFRDAACSAPSNGDRKCYQLPPAGRGLARRALERDMSEGADGIIVKPSTFYLDIMRDASEICKDLPICAYHVSGEYAMLHAAAEKGVVDLKTIAFESHQGFLRAGARLIITYLAPEFLDWLDEEN	soluble
MCTKNETKPLPSFIEERLNFHIQDLIKSNENQKHLVLGKRPSENAVVMQSNDYLSLSHNELIQKAHRDAISERDDNVVMSAIFLQDDQSKPAFEHQLATFVGMESCLLSQSGWAANIGLLQTICAPNLPVYIDFFAHMSLWEGARTAGAQIHPFMHNNMNHLRKQIQRHGAGIIVVDSVYSTIGTIAPLRAIYEMAKEFDCGLVVDESHSLGTHGPEGSGLLQKLGLTQMVDFVTVSLAKTFAYRAGAILGPNKLAQSLPFVAYPAIFSSTVLPQEVVRLEKTLEVIKAADDKRECLFKRAKELAIGLKRIGFNIRSESQIIALECGSERNTERVRDFLEERDVFGAVFCRPATGRNKNIIRFSVNADMTAQQVDHVLSACQEAFDHPDLEFV	not soluble
MGKKPISILLMGTDTGALGRSYKGRTDSMMVVTINPKTKKTTITSIPRDLGVTIPGYESKSPSKINAAYAFGQAGTAIKTVQQVFNVPIDFYVLVNMGGMEKVVDEAGGVDITPTLSFTYDGYTFTKGVKTHMNGKKALAYSRMRYDDPQNDYGRQTRQRAVLTAIISKSSSVSSLLNKDFIDSISNETKTDFTFNDLVDLAKNYRSSTGSIEETHAQGDGQMVNGQSMEIVSNTELQRVTNFIRNGLSLEHEKTGTAALSASSANTSDSSVEAANINAGNLEHHHHHH	soluble
MTDETTQNIKDKTEEELAALLDQTLGEFTATPAPKPRTTDDELDELMASADQEAAQKAAKDFQKMLEQMVTLQEEAMKKAGADPSEGEGEQPLDPNDPEALAMMDALKQLMECSSNVANASNPEEFMAGLDMLRSPNSPMEPFMSMIMQTLASKEVMYPPLKEIFDNYPKYLEDNGAGLDAETKERYEKQFEVLGKICTEFEKQPELAEVQPVDAATQPAPEADPASIEHFEKLGKLLVELQQYGYPPKELVGALPDGWQIDESGLPKVADAAAATEACSIM	soluble
MGSDKIHHHHHHMTIRSKFALFAGSSSYILLHKILHRGGTSLPGKIAYRIDPTFLEEFRDQIETVIVSGTNGKTLTTALCARVLKKTNRVVVTNNSGSNMIQGIVAALLSQKDKIKKSIRHGTIPIAVLEVDEANVKEVAKILQPTHFVLTNIFRDQMDRYGEIYTTYEKITDGIKTAPKAKVVANGDSPIFARKPYKNQAVYFGFTHKKSVGDLRAPNNTDGVLAPTNDQVLHYHYLTYANLGDYFTKDGSFKRPQLKYSVNKINSLTPSKSEFEIAGNKFTLPLGGLYNIYNALAAYSLGREFQISAEDIFNALNEDSRIFGRQEQLTIGSHLVTIVLIKNPVGANSVIDMMMTDPEEFSLVTLLNANYADGIDTSWIFDAEFEKLHQTALKKIIVGGQRYKDFSVRLKMAGFKNQIVEQDFAKLIDRIKELPTKNVYVAATYTSMLMFREELAKAGLAKESF	not soluble
TGPQGPPGPAGPKGAKGETGPQGPPGPAGPKGAKGDSGVPLSYEFTQKVESSNGTAVFGLLSNGFVEVRITGSYSSDVFNIPYNYRPLKAGTQMALFSTSGVGVAKVGEDKITIQGYSRNAQCSGTVLYPHREF	not soluble
FLSTRDNVDELRKIENKSSFVSADNMPEYVKGAFISMEDERFYNHHGFDLKGTTRALFSTISDRDVQGGSTITQQVVKNYFYDNDRSFTRKVKELFVAHRVEKQYNKNEILSFYLNNIYFGDNQYTLEGAANHYFGTTVNKNSTTMSHITVLQSAILASKVNAPSVYNINN	not soluble
MGSDKIHHHHHHMSQATAKVNREVQAFLQDLKGKTIDHVFFVACGGSSAIMYPSKYVFDRESKSINSDLYSANEFIQRNPVQLGEKSLVILCSHSGNTPETVKAAAFARGKGALTIAMTFKPESPLAQEAQYVAQYDWGDEALAINTNYGVLYQIVFGTLQVLENNTKFEQAIEGLDQLQAVYEKALKQEADNAKQFAKAHEKESIIYTMASGANYGVAYSYSICILMEMQWIHSHAIHAGEYFHGPFEIIDESVPFIILLGLDETRPLEERALTFSKKYGKKLTVLDAASYDFTAIDDSVKGYLAPLVLNRVLRSYADELAEERNHPLSHRRYMWKVEY	not soluble
MESKHKLSINQWALEDRPREKMMEKGAAALSDAELLAILIGSGNTEESAVELMRRLLLSCDNNLNSLAKWEVCDYSRFKGMGPAKSITVMAALELGKRRKLQNIQERPRISCSRDIYDIFQPVMCDLEQEEFWVLLLNQATRLIDKVRISTGGIDGTYTDVRTILREALLQRATQIAVVHNHPSGNIQPSQPDRTLTEHIRRAADTMNIRLIDHVIVCEDKFYSFADEGLL	not soluble
MAHHHHHHMLRHCIPRLGIAKTVIKDNYSLSTLTNGLRVLTCDDGNGVTGMGLFMLNGAKFESPDNAGAAAVFEALPLRDNQIYTSREISQALSGLGNAFKVTNNKEALSVILMLPRYHQRDGLELLNAMCLHPTRNEEEFRIAKEKTHERTLLYDRDATSVCFELVHEAGWNGKGLGHSLNPKKEELDKLTLEKFTAFHSACTRPERTVLAATGVADHKSFAEEVEKLLRFNNADVAVQAMPQLQPGYYPYTGGSRLVHRTEAPESVNKFQEKSLSHVALFFQGVPINHPDYYNISVIQTLLGGGTSFSSGGPGKGMQTKLFREVLNREGFLHGLECITAWYSDGGLFGLYGTAPHQAVVSLLNVMIYQAASICQRVSPTHLEMAKNQLRSQLILLGEGREQLLSDMGFNLVVHNHIITATETMEGTRNITLDDLKRVCADMIKKPLTFTVYGDTTKMPSHESLEETVRKTYEKLN	not soluble
SSLAISVANDDAGIFQPSLNALYGHPAADRGDYTAGLFLGYSHDLTDASQLSFHIAQDIYSPSGANKRKPEAVKGDRAFSAFLHTGLEWNSLATNWLRYRLGTDIGVIGPDAGGQEVQNRAHRIIGAEKYPAWQDQIENRYGYTAKGMVSLTPAIDILGVNVGFYPEVSAVGGNLFQYLGYGATVALGNDKTFNSDNGFGLLSRRGLIHTQKEGLIYKVFAGVERREVDKNYTLQGKTLQTKMETVDINKTVDEYRVGATIGYSPVAFSLSLNKVTSEFRTGDDYSYINGDITFFF	soluble
MSNSAQRDARNSRDESARASDTDRIQIAQLLAYAAEQGRLQLTDYEDRLARAYAATTYQELDRLRADLPGAAIGPRRGGECNPAPSTLLLALLGGFERRGRWNVPKKLTTFTLWGSGVLDLRYADFTSTEVDIRAYSIMGAQTILLPPEVNVEIHGHRVMGGFDRKVVGEGTRGVPTVRIRGFSLWGDVGIKRKPRKPRK	not soluble
MAHHHHHHMKNKSIRKERQSGETLEDNIEEINYCIKVIPKDKINSKGNGAIRLSNLDMNRSNNGNYYNQNNNVENINDFETECRNYIEDILKIDEYVKLPNSINNEQDKIKWKKAHSLRNRMKEYDLITRTRLYQSNSVNNKAKLNRERYIILNKIPRYREAFPSIMNNTSTDKIKEDIIRTYLKTHAAYFLSQNKKNSNLSLKNMGRNTYFSFRKKSDDRNNSLINYNKHMNDKSKSVEHNNCPNLKKKDRSYNLWKRITVDDIKNTHFTPTEKQYLKDYNIFLNDAFNNFKINQNNNKRQLNVKNQKNIPNYDMINNKIYGHIKNNANNNLYINNQKREDAYIINPSQNNIITSPNEEQYPYFNNYSYSDKNKNLSTYNTEGKRNIYTNDVKSNTNYQHSNNSNYSDESLNMFSNSSTSIYEKYNLKDKNFVLKRDRYALLGKIKNNKEIEVKLVLNKV	not soluble
